# Measurements published in paper doi:10.1101/2025.07.11.664400 (bioRxiv, 2025).
# Key:
# RecBCD [1] = target: T1, RecBCD (Escherichia coli, UniProt P08394;P07648;P04993 1-1180;1-1122;1-608); experiment: fluorescence titration
# RecBΔNucCD [2] = target: T2, RecBΔNucCD (Escherichia coli, UniProt P08394;P07648;P04993 1-929;1-1122;1-608); experiment: fluorescence titration
# RecBΔNucCD [3] = target: T2, RecBΔNucCD; experiment: fluorescence titration; remark: listed apart in the source
# RecBΔNucCD [4] = target: T2, RecBΔNucCD; experiment: ITC
# RecBΔNucCD [5] = target: T2, RecBΔNucCD; experiment: ITC; remark: listed apart in the source
# RecBCD [6] = target: T1, RecBCD; experiment: fluorescence competition
# RecBΔNucCD [7] = target: T2, RecBΔNucCD; experiment: fluorescence competition
Binder,Ka (RecBCD [1]) [M⁻¹],Ka (RecBΔNucCD [2]) [M⁻¹],Ka (RecBΔNucCD [3]) [M⁻¹],Ka (RecBΔNucCD [4]) [M⁻¹],Ka (RecBΔNucCD [5]) [M⁻¹],Ka (RecBCD [6]) [M⁻¹],Ka (RecBΔNucCD [7]) [M⁻¹]
Reference DNA (dsDNA) DNA 1: CCATGGCTCCTGAGCTAGCTGCAGTAGCCTAAAGGATGAAACTAGGATCTTATGCTCCAGTTTT DNA 2: CTGGAGCATAAGATCCTAGTTTCATCCTTTAGGCTACTGCAGCTAGCTCAGGAGCCATGGTTTT,3.2e+07,1.6e+08,> 2e+09,–,–,–,–
Blunt ended DNA (dsDNA) DNA 1: CCATGGCTCCTGAGCTAGCTGCAGTAGCCTAAAGGATGAAACTAGGATCTTATGCTCCAG DNA 2: CTGGAGCATAAGATCCTAGTTTCATCCTTTAGGCTACTGCAGCTAGCTCAGGAGCCATGG,–,–,–,1.2e+07,> 1e+09,1.4e+07,4.7e+07
